As usually defined, the stoichiometry N is the number of molecules, sites or subunits per partner or assembly.

Like-named read-outs stand apart in the source and are kept apart here.

Assay [1] deals with Giardia lamblia tryptophanyl-tRNA synthetase (Giardia lamblia (strain WB)). The assay is described as follows: SEC. For orientation: In gel filtration, larger molecules generally elute earlier.
The target is the same in assay [2]. The assay is described as follows: SEC. The source holds these as a separate data set.

For the substance “Giardia lamblia tryptophanyl-tRNA synthetase (enzyme)”, the stoichiometry N in assay [1] and in assay [2] was 2 throughout.

The values above are taken from publication PMC2885457.
